Source: patent US20240279278A1, “NMU RECEPTOR 2 AGONISTS” (Boehringer Ingelheim International GmbH, priority 2023, published 2024)

T1: human neuromedin U receptor 1 (human, UniProt Q9HB89 24-426)
T1 sequence (looked up): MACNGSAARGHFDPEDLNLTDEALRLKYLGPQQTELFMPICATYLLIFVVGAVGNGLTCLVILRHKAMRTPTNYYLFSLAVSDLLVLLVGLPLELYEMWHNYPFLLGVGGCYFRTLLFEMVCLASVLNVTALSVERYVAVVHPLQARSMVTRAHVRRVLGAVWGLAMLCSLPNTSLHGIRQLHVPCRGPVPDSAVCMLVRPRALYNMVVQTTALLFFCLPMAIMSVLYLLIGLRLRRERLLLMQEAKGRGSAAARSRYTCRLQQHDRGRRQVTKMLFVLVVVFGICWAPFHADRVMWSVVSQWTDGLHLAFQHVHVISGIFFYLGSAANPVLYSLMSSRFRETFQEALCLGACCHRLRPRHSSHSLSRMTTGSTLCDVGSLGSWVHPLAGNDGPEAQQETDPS


The binders below were run against T1, human neuromedin U receptor 1 (assay: cell-based or functional assay).

| Binder | EC50 (hNMUR1) buffer [nM] |
| --- | --- |
| EEEXXXXXXXXXXYFLXXPRG (HELM PEPTIDE1{[O=C(O)CCCCCCCCCCCCCCCCC(=O)[*:2]].[gGlu].[gGlu].[gGlu].[Sar].[Sar].[Sar].[Sar].[Sar].[Sar].[Sar].[Sar].[Sar].[O=C(CN1CCN(CCN[*:1])CC1)[*:2]].Y.F.[meL].[Nle].[Orn].P.R.G.[am]}$$$$V2.0; SMILES CCCC[C@H](NC(=O)[C@H](CC(C)C)N(C)C(=O)[C@H](Cc1ccccc1)NC(=O)[C@H](Cc1ccc(O)cc1)NC(=O)CN1CCN(CCNC(=O)CN(C)C(=O)CN(C)C(=O)CN(C)C(=O)CN(C)C(=O)CN(C)C(=O)CN(C)C(=O)CN(C)C(=O)CN(C)C(=O)CN(C)C(=O)CC[C@H](NC(=O)CC[C@H](NC(=O)CC[C@H](NC(=O)CCCCCCCCCCCCCCCCC(=O)O)C(=O)O)C(=O)O)C(=O)O)CC1)C(=O)N[C@@H](CCCN)C(=O)N1CCC[C@H]1C(=O)N[C@@H](CCCNC(=N)N)C(=O)NCC(N)=O) [C18DA-gGlu3-Sar9-AEPipAc-Tyr-Phe-NMeLeu-Nle-Orn-Pro-Arg-Gly-NH2] | 770 |
| EEEXXXXXXXXXXXXXXXXYFLXXPRG (HELM PEPTIDE1{[O=C(O)CCCCCCCCCCCCCCCCC(=O)[*:2]].[gGlu].[gGlu].[gGlu].[Sar].[Sar].[Sar].[Sar].[Sar].[Sar].[Sar].[Sar].[Sar].[Sar].[Sar].[Sar].[Sar].[Sar].[Sar].[O=C(CN1CCN(CCN[*:1])CC1)[*:2]].Y.F.[meL].[Nle].[Dab].P.R.G.[am]}$$$$V2.0; SMILES CCCC[C@H](NC(=O)[C@H](CC(C)C)N(C)C(=O)[C@H](Cc1ccccc1)NC(=O)[C@H](Cc1ccc(O)cc1)NC(=O)CN1CCN(CCNC(=O)CN(C)C(=O)CN(C)C(=O)CN(C)C(=O)CN(C)C(=O)CN(C)C(=O)CN(C)C(=O)CN(C)C(=O)CN(C)C(=O)CN(C)C(=O)CN(C)C(=O)CN(C)C(=O)CN(C)C(=O)CN(C)C(=O)CN(C)C(=O)CN(C)C(=O)CC[C@H](NC(=O)CC[C@H](NC(=O)CC[C@H](NC(=O)CCCCCCCCCCCCCCCCC(=O)O)C(=O)O)C(=O)O)C(=O)O)CC1)C(=O)N[C@@H](CCN)C(=O)N1CCC[C@H]1C(=O)N[C@@H](CCCNC(=N)N)C(=O)NCC(N)=O) [C18DA-gGlu3-Sar15-AEPipAc-Tyr-Phe-NMeLeu-Nle-Dbu-Pro-Arg-Gly-NH2] | > 1000 |
| EEEXXXXXXXXXXYFLXXARG (HELM PEPTIDE1{[O=C(O)CCCCCCCCCCCCCCCCC(=O)[*:2]].[gGlu].[gGlu].[gGlu].[Sar].[Sar].[Sar].[Sar].[Sar].[Sar].[Sar].[Sar].[Sar].[O=C(CN1CCN(CCN[*:1])CC1)[*:2]].Y.F.[meL].[Nle].[Dab].[meA].R.G.[am]}$$$$V2.0; SMILES CCCC[C@H](NC(=O)[C@H](CC(C)C)N(C)C(=O)[C@H](Cc1ccccc1)NC(=O)[C@H](Cc1ccc(O)cc1)NC(=O)CN1CCN(CCNC(=O)CN(C)C(=O)CN(C)C(=O)CN(C)C(=O)CN(C)C(=O)CN(C)C(=O)CN(C)C(=O)CN(C)C(=O)CN(C)C(=O)CN(C)C(=O)CC[C@H](NC(=O)CC[C@H](NC(=O)CC[C@H](NC(=O)CCCCCCCCCCCCCCCCC(=O)O)C(=O)O)C(=O)O)C(=O)O)CC1)C(=O)N[C@@H](CCN)C(=O)N(C)[C@@H](C)C(=O)N[C@@H](CCCNC(=N)N)C(=O)NCC(N)=O) [C18DA-gGlu3-Sar9-AEPipAc-Tyr-Phe-NMeLeu-Nle-Dbu-NMeAla-Arg-Gly-NH2] | > 1000 |
| EEEXXXXXXXXXXXXXYFLXXPRG (HELM PEPTIDE1{[O=C(O)CCCCCCCCCCCCCCCCC(=O)[*:2]].[gGlu].[gGlu].[gGlu].[Sar].[Sar].[Sar].[Sar].[Sar].[Sar].[Sar].[Sar].[Sar].[Sar].[Sar].[Sar].[O=C(CN1CCN(CCN[*:1])CC1)[*:2]].Y.F.[meL].[Nle].[Dab].P.R.G.[am]}$$$$V2.0; SMILES CCCC[C@H](NC(=O)[C@H](CC(C)C)N(C)C(=O)[C@H](Cc1ccccc1)NC(=O)[C@H](Cc1ccc(O)cc1)NC(=O)CN1CCN(CCNC(=O)CN(C)C(=O)CN(C)C(=O)CN(C)C(=O)CN(C)C(=O)CN(C)C(=O)CN(C)C(=O)CN(C)C(=O)CN(C)C(=O)CN(C)C(=O)CN(C)C(=O)CN(C)C(=O)CN(C)C(=O)CC[C@H](NC(=O)CC[C@H](NC(=O)CC[C@H](NC(=O)CCCCCCCCCCCCCCCCC(=O)O)C(=O)O)C(=O)O)C(=O)O)CC1)C(=O)N[C@@H](CCN)C(=O)N1CCC[C@H]1C(=O)N[C@@H](CCCNC(=N)N)C(=O)NCC(N)=O) [C18DA-gGlu3-Sar12-AEPipAc-Tyr-Phe-NMeLeu-Nle-Dbu-Pro-Arg-Gly-NH2] | 1700 |
| EEEXXXXXXXXXXXXXYFLXRPRG (HELM PEPTIDE1{[O=C(O)CCCCCCCCCCCCCCCCC(=O)[*:2]].[gGlu].[gGlu].[gGlu].[Sar].[Sar].[Sar].[Sar].[Sar].[Sar].[Sar].[Sar].[Sar].[Sar].[Sar].[Sar].[O=C(CN1CCN(CCN[*:1])CC1)[*:2]].Y.F.[meL].[Nle].R.P.R.G.[am]}$$$$V2.0; SMILES CCCC[C@H](NC(=O)[C@H](CC(C)C)N(C)C(=O)[C@H](Cc1ccccc1)NC(=O)[C@H](Cc1ccc(O)cc1)NC(=O)CN1CCN(CCNC(=O)CN(C)C(=O)CN(C)C(=O)CN(C)C(=O)CN(C)C(=O)CN(C)C(=O)CN(C)C(=O)CN(C)C(=O)CN(C)C(=O)CN(C)C(=O)CN(C)C(=O)CN(C)C(=O)CN(C)C(=O)CC[C@H](NC(=O)CC[C@H](NC(=O)CC[C@H](NC(=O)CCCCCCCCCCCCCCCCC(=O)O)C(=O)O)C(=O)O)C(=O)O)CC1)C(=O)N[C@@H](CCCNC(=N)N)C(=O)N1CCC[C@H]1C(=O)N[C@@H](CCCNC(=N)N)C(=O)NCC(N)=O) [C18DA-gGlu3-Sar12-AEPipAc-Tyr-Phe-NMeLeu-Nle-Arg-Pro-Arg-Gly-NH2] | 200 |

Results, then the binder that gave them:

| EC50 (hNMUR1) buffer [nM] | Binder |
| --- | --- |
| > 1000 | EEEXXXXXXXXXXXXXXXXYFLXXARG (HELM PEPTIDE1{[O=C(O)CCCCCCCCCCCCCCCCC(=O)[*:2]].[gGlu].[gGlu].[gGlu].[Sar].[Sar].[Sar].[Sar].[Sar].[Sar].[Sar].[Sar].[Sar].[Sar].[Sar].[Sar].[Sar].[Sar].[Sar].[O=C(CN1CCN(CCN[*:1])CC1)[*:2]].Y.F.[meL].[Nle].[Dab].[meA].R.G.[am]}$$$$V2.0; SMILES CCCC[C@H](NC(=O)[C@H](CC(C)C)N(C)C(=O)[C@H](Cc1ccccc1)NC(=O)[C@H](Cc1ccc(O)cc1)NC(=O)CN1CCN(CCNC(=O)CN(C)C(=O)CN(C)C(=O)CN(C)C(=O)CN(C)C(=O)CN(C)C(=O)CN(C)C(=O)CN(C)C(=O)CN(C)C(=O)CN(C)C(=O)CN(C)C(=O)CN(C)C(=O)CN(C)C(=O)CN(C)C(=O)CN(C)C(=O)CN(C)C(=O)CC[C@H](NC(=O)CC[C@H](NC(=O)CC[C@H](NC(=O)CCCCCCCCCCCCCCCCC(=O)O)C(=O)O)C(=O)O)C(=O)O)CC1)C(=O)N[C@@H](CCN)C(=O)N(C)[C@@H](C)C(=O)N[C@@H](CCCNC(=N)N)C(=O)NCC(N)=O) [C18DA-gGlu3-Sar15-AEPipAc-Tyr-Phe-NMeLeu-Nle-Dbu-NMeAla-Arg-Gly-NH2] |
| 1000 | EEEXXXXXXXXXXYFLXXPRG (HELM PEPTIDE1{[O=C(O)CCCCCCCCCCCCCCCCC(=O)[*:2]].[gGlu].[gGlu].[gGlu].[Sar].[Sar].[Sar].[Sar].[Sar].[Sar].[Sar].[Sar].[Sar].[O=C(CN1CCN(CCN[*:1])CC1)[*:2]].Y.F.[meL].[Nle].[Dab].P.R.G.[am]}$$$$V2.0; SMILES CCCC[C@H](NC(=O)[C@H](CC(C)C)N(C)C(=O)[C@H](Cc1ccccc1)NC(=O)[C@H](Cc1ccc(O)cc1)NC(=O)CN1CCN(CCNC(=O)CN(C)C(=O)CN(C)C(=O)CN(C)C(=O)CN(C)C(=O)CN(C)C(=O)CN(C)C(=O)CN(C)C(=O)CN(C)C(=O)CN(C)C(=O)CC[C@H](NC(=O)CC[C@H](NC(=O)CC[C@H](NC(=O)CCCCCCCCCCCCCCCCC(=O)O)C(=O)O)C(=O)O)C(=O)O)CC1)C(=O)N[C@@H](CCN)C(=O)N1CCC[C@H]1C(=O)N[C@@H](CCCNC(=N)N)C(=O)NCC(N)=O) [C18DA-gGlu3-Sar9-AEPipAc-Tyr-Phe-NMeLeu-Nle-Dbu-Pro-Arg-Gly-NH2] |
